What all share (experiment): NMR
For series [1], the system named is Lys56. Conditions: 25 °C; <60 mM (no added salt; only HCl/NaOH used for pH adjustment); none (water without buffer); folded dimer, free protein, about 1.5 mM.
Series [2] relates to Lys30. The settings on record: 25 °C; <60 mM (no added salt; only HCl/NaOH used for pH adjustment); none (water without buffer); folded dimer, free protein, about 1.5 mM.
Series [3] deals with Lys55. The settings on record: 25 °C; <60 mM (no added salt; only HCl/NaOH used for pH adjustment); none (water without buffer); folded dimer, free protein, about 1.5 mM.
The test system of series [4] is Lys12. Conditions: 25 °C; <60 mM (no added salt; only HCl/NaOH used for pH adjustment); none (water without buffer); folded dimer, free protein, about 1.5 mM.
Series [5] deals with Lys6. Conditions: 25 °C; <60 mM (no added salt; only HCl/NaOH used for pH adjustment); none (water without buffer); folded dimer, free protein, about 1.5 mM.
Series [6] concerns Lys45. Conditions: 25 °C; <60 mM (no added salt; only HCl/NaOH used for pH adjustment); none (water without buffer); folded dimer, free protein, about 1.5 mM.
The test system of series [7] is Lys32. The settings on record: 25 °C; <60 mM (no added salt; only HCl/NaOH used for pH adjustment); none (water without buffer); folded dimer, free protein, about 1.5 mM.
Series [8] deals with Tyr5. Conditions: 25 °C; <60 mM (no added salt; only HCl/NaOH used for pH adjustment); none (water without buffer); folded dimer, free protein, about 1.5 mM.
For series [9], the system named is Tyr47. The settings on record: folded dimer.
For series [10], the system named is Lys53. The settings on record: 25 °C; <60 mM (no added salt; only HCl/NaOH used for pH adjustment); none (water without buffer); folded dimer, free protein, about 1.5 mM.
The subject of series [11] is Tyr16. Conditions: 25 °C; <60 mM (no added salt; only HCl/NaOH used for pH adjustment); none (water without buffer); folded dimer, free protein, about 1.5 mM.
Series [12] addresses His31 (UniProt position 31, TIGIGHLLTKS). Conditions: cited from earlier work.

The text below walks through data of PMC12117459.

Regarding “Ribbon-helix-helix (rhh) protein ORF56 from plasmid pRN1 (Sulfolobus islandicus (plasmid pRN1))”, the pKa in series [1] stood at 10.96 ± 0.03; in series [2], 10.86 ± 0.01; in [3], 11.08 ± 0.04; in series [4], 10.54 ± 0.01; in series [5], 10.79 ± 0.01; in [6], 11.27 ± 0.02. Further, the pKa was 10.48 ± 0.01 in series [7]; 9.85 ± 0.01 in series [8]; over 13.7 in series [9] (25 °C, <60 mM (no added salt; only HCl/NaOH used for pH adjustment), none (water without buffer), free protein, about 1.5 mM); “above pH 13” in series [9] (cited from earlier work); 10.25 ± 0.02 in series [10]; 9.85 ± 0.01 in series [11].

Consider “T4 lysozyme (Enterobacteria phage T4 (Tequatrovirus T4))”, for which the pKa in series [12] is listed as 9.

A word on the pKa: it is the negative logarithm of the acid dissociation constant.
